Measured values: publication PMC11321707

Columns and labels:
[1] = diffusion-ordered NMR spectroscopy (DOSY); R5 in the presence of Pi, 25 °C; hydrodynamic radius by Stokes-Einstein, spherical model; monomer to trimer; conditions: other: diffusion-ordered NMR spectroscopy (DOSY)
[2] = 1H-15N HSQC NMR (signal loss and chemical shift perturbation upon self-assembly); R5 in phosphate-buffered solution, 50 mM Pi, pH 6.5, 25 °C; compared with R5 without Pi; conditions: other: 1H-15N HSQC NMR (signal loss and chemical shift perturbation upon self-assembly)
[3] = 1H-15N HSQC NMR (signal loss and chemical shift perturbation upon self-assembly); R5 in phosphate-buffered solution, 11.8 mM Pi, pH 6.5, 25 °C; compared with R5 without Pi; conditions: other: 1H-15N HSQC NMR (signal loss and chemical shift perturbation upon self-assembly)

In the case of R5 peptide, the “N with Pi” value [1] is reported as “an aggregate volume that fits three R5 units”, the “percent of the peptides outside the large self-assemblies, with Pi” value [2] is reported as “≈0.7 and ≈0.01% of the peptides remained outside the large self‐assemblies” and the “percent of the peptides outside the large self-assemblies, with Pi” value [3] is reported as “≈0.7 and ≈0.01% of the peptides remained outside the large self‐assemblies”.
